This series can be described thus: self-splicing fitness, log relative to wild type (ln ratio); higher = more splicing; Tetrahymena group I intron in knt gene, E. coli kanamycin selection, DiMSum; sequences stand for … in CUCUCU…GGAGGGAAAAGUUAUCAGGCAUGCACCUGGUAGCUAGUCUUUAAACCAAUAGAUUGCAUCGGUUUAAAAGGCAAGACCGUCAAAUUGCGGGAAAGGGGUCAACAGCCGUUCAGUACCAAGUCUCAGGGGAAACUUUGAGAUGGCCUUGCAAAGGGUAUGGUAAUAAGCUGACGGACAUGGUCCUAACCACGCAGCCAAGUCCUAAGUCAACAGAUCUUCUGUUGAUAUGGAUGCAGUUCACAGACUAAAUGUCGGUCGGGGAAGAUGUAUUCUUCUCAUAAGAUAUAGUCGGACCUCUCCUUAAUGGGAGCUAGCGGAUGAAGUGAUGCAACACUGGAGCCGCUGGGAACUAAUUUGUAUGCGAAAGUAUAUUGAUUAGUUUUGGAGUACUCGUGGUCG
In a few lines:
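Library with all eight P1ex-region intron nucleotides randomised, intron inside the knt kanamycin-resistance gene on pET-22b(+), in E. coli BL21(DE3). Cells grew overnight at 37°C or 30°C on LB agar with or without 25 μg/mL kanamycin (plus 100 μg/mL carbenicillin, 50 μM IPTG, 0.2% rhamnose), in six replicate transformations. Pooled colonies were amplicon-sequenced on Illumina HiSeq 2500. DiMSum fitness is the error-weighted combination of wild-type-normalised replicate fold changes, kanamycin versus none.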

± gives the uncertainty stated by the source.

Experimental findings from the supplement of paper PMC7877785 are described below.

With GUACAGCAAUAUUACGCGCC, the “self-splicing fitness (ln)” value is, setting by setting: (30 °C) -2.15 ± 0.21; (37 °C) -1.49 ± 0.34.
For GCCGAGCAAUAUUACGUGUG, in that order: -1.43 ± 0.07 and -0.815 ± 0.081.
For the sequence UAAGAGCAAUAUUACGGUGC, for the setting “30 °C”, the “self-splicing fitness (ln)” value is -3.43 ± 0.28.
For UACCAGCAAUAUUACGAGCU, the “self-splicing fitness (ln)” value was -3.29 ± 0.21 (30 °C) and -2.7 ± 0.24 (37 °C).
With UCUAAGCAAUAUUACGAAUA, the “self-splicing fitness (ln)” value (37 °C) is -1.52 ± 0.32.
As to CUGGAGCAAUAUUACGGACC, the “self-splicing fitness (ln)” value (30 °C) is -3.79 ± 0.24 and the “self-splicing fitness (ln)” value (37 °C) is -2.04 ± 0.34.
In the case of GUAUAGCAAUAUUACGCGCU, the “self-splicing fitness (ln)” value (30 °C) is -2.22 ± 0.16 and the “self-splicing fitness (ln)” value (37 °C) was -0.818 ± 0.16.
The matching figures for GAUUAGCAAUAUUACGCAUG: -0.728 ± 0.14 and -0.334 ± 0.17.
For the sequence AGGAAGCAAUAUUACGAGUA, the “self-splicing fitness (ln)” value was -2.59 ± 0.15 (30 °C) and -2.21 ± 0.17 (37 °C).
Consider CCAGAGCAAUAUUACGUGAG, for which the “self-splicing fitness (ln)” value runs as follows: (30 °C) -0.95 ± 0.061; (37 °C) -0.428 ± 0.074.
The matching figures for GAACAGCAAUAUUACGCGCU: -0.914 ± 0.088 and -0.133 ± 0.11.
Consider CAGGAGCAAUAUUACGCGCC, for which the “self-splicing fitness (ln)” value (37 °C) is -2.5 ± 0.26.
Still for that read-out and setting: the same measure for GGGGAGCAAUAUUACGCUAA: 0.376 ± 0.38.
Consider GGAGAGCAAUAUUACGAGAG, for which the “self-splicing fitness (ln)” value reads like this: (30 °C) -3.07 ± 0.25; (37 °C) -2.31 ± 0.33.
In the case of GGUUAGCAAUAUUACGACAU, the “self-splicing fitness (ln)” value was 0.0748 ± 0.014 (30 °C) and 0.332 ± 0.034 (37 °C).
On to GCUCAGCAAUAUUACGUCUG, for which the “self-splicing fitness (ln)” value is, setting by setting: (30 °C) -2.36 ± 0.094; (37 °C) -1.99 ± 0.11.
As for UGCAAGCAAUAUUACGAGUU, the “self-splicing fitness (ln)” value reads like this: (30 °C) -1.88 ± 0.084; (37 °C) -0.67 ± 0.098.
Take UAUCAGCAAUAUUACGUCUA: the “self-splicing fitness (ln)” value by setting is: (30 °C) -0.033 ± 0.078; (37 °C) 0.747 ± 0.1.
For GUCGAGCAAUAUUACGGUUG, in that order: -2.68 ± 0.2 and -2.15 ± 0.26.
For UUGUAGCAAUAUUACGCUCG, in that order: -0.29 ± 0.14 and -0.456 ± 0.25.
CUCAAGCAAUAUUACGUCUU: the “self-splicing fitness (ln)” value is, setting by setting: (30 °C) -3.42 ± 0.21; (37 °C) -2.06 ± 0.16.
The matching figures for UGGCAGCAAUAUUACGGUCA: -2.12 ± 0.18 and -1.58 ± 0.15.
The matching figures for AAACAGCAAUAUUACGGUGU: -2.42 ± 0.06 and -1.4 ± 0.071.
For the sequence AGUUAGCAAUAUUACGGGAU, the “self-splicing fitness (ln)” value is -3.18 ± 0.26 (30 °C) and -1.46 ± 0.22 (37 °C).
For AUUAAGCAAUAUUACGAUGC, in that order: -2.09 ± 0.15 and -1.86 ± 0.17.
For GAAAAGCAAUAUUACGUUUG, in that order: -2.71 ± 0.097 and -2.02 ± 0.15.
On to GUCCAGCAAUAUUACGUUGC, for which the “self-splicing fitness (ln)” value reads like this: (30 °C) -2.05 ± 0.13; (37 °C) -0.538 ± 0.16.
The matching figures for CCGUAGCAAUAUUACGGCGC: -3.01 ± 0.33 and -1.48 ± 0.32.
The matching figures for GUCCAGCAAUAUUACGUGAC: -1.23 ± 0.13 and -1.93 ± 0.16.
Take CAAGAGCAAUAUUACGGACU: the “self-splicing fitness (ln)” value (37 °C) is -2.75 ± 0.28.
As to UUCGAGCAAUAUUACGUCUA, the “self-splicing fitness (ln)” value is -1.29 ± 0.15 (30 °C) and -0.414 ± 0.13 (37 °C).
GGUAAGCAAUAUUACGCUCA: the “self-splicing fitness (ln)” value (30 °C) is -0.326 ± 0.26 and the “self-splicing fitness (ln)” value (37 °C) was -0.105 ± 0.48.
For CACAAGCAAUAUUACGUCAU, in that order: -3.45 ± 0.14 and -2.78 ± 0.15.
For AGGGAGCAAUAUUACGGGCA, in that order: -3.79 ± 0.43 and -1.46 ± 0.34.
For the sequence GGCUAGCAAUAUUACGCUAA, the “self-splicing fitness (ln)” value was -0.801 ± 0.2 (30 °C) and -0.34 ± 0.15 (37 °C).
The matching figures for AUUAAGCAAUAUUACGUUAU: -1.22 ± 0.097 and -1.1 ± 0.15.
CCGUAGCAAUAUUACGAGAG: the “self-splicing fitness (ln)” value (30 °C) is -3.86 ± 0.29 and the “self-splicing fitness (ln)” value (37 °C) was -2.54 ± 0.24.
Take UUUUAGCAAUAUUACGUGAU: the “self-splicing fitness (ln)” value reads like this: (30 °C) -2.76 ± 0.31; (37 °C) -2.19 ± 0.32.
For the sequence ACAGAGCAAUAUUACGCAUG, the “self-splicing fitness (ln)” value (30 °C) was -2.9 ± 0.12 and the “self-splicing fitness (ln)” value (37 °C) was -1.95 ± 0.13.
The matching figures for CGGCAGCAAUAUUACGAAGG: -1.13 ± 0.12 and 0.373 ± 0.17.
Take GCGCAGCAAUAUUACGCUCG: the “self-splicing fitness (ln)” value by setting is: (30 °C) -3.65 ± 0.38; (37 °C) -2.89 ± 0.34.
CCGCAGCAAUAUUACGGAGA: the “self-splicing fitness (ln)” value is -2.53 ± 0.17 (30 °C) and -2.36 ± 0.21 (37 °C).
Consider AAAAAGCAAUAUUACGGUGU, for which the “self-splicing fitness (ln)” value was -2.13 ± 0.094 (30 °C) and -1.39 ± 0.11 (37 °C).
On to GUAAAGCAAUAUUACGCUAG, for which the “self-splicing fitness (ln)” value is, setting by setting: (30 °C) -1.03 ± 0.079; (37 °C) -0.533 ± 0.1.
Regarding AUUGAGCAAUAUUACGACUG, where the note is “37 °C”, the “self-splicing fitness (ln)” value is -0.882 ± 0.25.
In the case of GUACAGCAAUAUUACGCUGU, the “self-splicing fitness (ln)” value is -3.5 ± 0.16 (30 °C) and -3 ± 0.21 (37 °C).
The matching figures for AAGGAGCAAUAUUACGUCGU: -2.73 ± 0.11 and -0.982 ± 0.12.
For UACCAGCAAUAUUACGAACG, in that order: -0.468 ± 0.063 and -0.562 ± 0.07.
The matching figures for AAAUAGCAAUAUUACGGGAG: -2.29 ± 0.14 and -1.84 ± 0.19.
Take GUUCAGCAAUAUUACGUCGC: the “self-splicing fitness (ln)” value by setting is: (30 °C) -0.991 ± 0.1; (37 °C) -0.347 ± 0.12.
Turning to CCGUAGCAAUAUUACGCUCU, the “self-splicing fitness (ln)” value runs as follows: (30 °C) -2.65 ± 0.37; (37 °C) -2.48 ± 0.39.
For AGGAAGCAAUAUUACGGAAG, in that order: -2.98 ± 0.25 and -2.28 ± 0.39.
In the case of CGCCAGCAAUAUUACGUAUG, the “self-splicing fitness (ln)” value is, setting by setting: (30 °C) -0.516 ± 0.055; (37 °C) -0.0225 ± 0.074.
The matching figures for CCGCAGCAAUAUUACGUACA: -2.89 ± 0.16 and -2.4 ± 0.23.
For UCGCAGCAAUAUUACGCCGC, the “self-splicing fitness (ln)” value (37 °C) was -1.21 ± 0.32.
Consider CUAAAGCAAUAUUACGGCUG, for which the “self-splicing fitness (ln)” value reads like this: (30 °C) 0.0357 ± 0.069; (37 °C) -0.0492 ± 0.089.
The matching figures for GGCAAGCAAUAUUACGGAAU: -0.693 ± 0.075 and -0.506 ± 0.1.
CACCAGCAAUAUUACGGACU: the “self-splicing fitness (ln)” value (30 °C) is -2.98 ± 0.11 and the “self-splicing fitness (ln)” value (37 °C) is -2 ± 0.11.
As for AGCUAGCAAUAUUACGAUCA, the “self-splicing fitness (ln)” value runs as follows: (30 °C) -2.01 ± 0.12; (37 °C) -0.168 ± 0.11.
With CCGCAGCAAUAUUACGGACC, the “self-splicing fitness (ln)” value (30 °C) is -3.45 ± 0.41.
In the case of GACGAGCAAUAUUACGGAGC, the “self-splicing fitness (ln)” value (30 °C) was -4.4 ± 0.39 and the “self-splicing fitness (ln)” value (37 °C) is -2.27 ± 0.22.
Turning to UCUCAGCAAUAUUACGGCCG, under “37 °C”, the “self-splicing fitness (ln)” value was -2.73 ± 0.38.
As to GGAGAGCAAUAUUACGCACU, the “self-splicing fitness (ln)” value was -2.77 ± 0.49 (30 °C) and -1.94 ± 0.46 (37 °C).
As for AGCCAGCAAUAUUACGAAGC, the “self-splicing fitness (ln)” value (30 °C) is -1.65 ± 0.22 and the “self-splicing fitness (ln)” value (37 °C) is -1.96 ± 0.37.
The matching figures for AGAUAGCAAUAUUACGUGAU: -1.92 ± 0.11 and -0.886 ± 0.11.
Turning to UGAUAGCAAUAUUACGAAGG, the “self-splicing fitness (ln)” value (30 °C) is -2.96 ± 0.15 and the “self-splicing fitness (ln)” value (37 °C) was -2.26 ± 0.2.
The matching figures for CCCUAGCAAUAUUACGCAUG: -2.33 ± 0.14 and -2.73 ± 0.2.
As for CCUAAGCAAUAUUACGGGGG, the “self-splicing fitness (ln)” value (30 °C) is -3.51 ± 0.2 and the “self-splicing fitness (ln)” value (37 °C) was -2.5 ± 0.24.
For UUUCAGCAAUAUUACGCUCC, the “self-splicing fitness (ln)” value was -1.69 ± 0.22 (30 °C) and -1.02 ± 0.29 (37 °C).
The matching figures for GGGAAGCAAUAUUACGCAAU: -2.67 ± 0.17 and -1.42 ± 0.19.
Consider AAAGAGCAAUAUUACGUGUU, for which the “self-splicing fitness (ln)” value is -4.56 ± 0.36 (30 °C) and -2.66 ± 0.24 (37 °C).
Turning to UUGGAGCAAUAUUACGGCUG, the “self-splicing fitness (ln)” value (30 °C) was -2.22 ± 0.28.
Regarding GUUAAGCAAUAUUACGUUUG, the “self-splicing fitness (ln)” value runs as follows: (30 °C) -2.55 ± 0.12; (37 °C) -1.86 ± 0.17.
The matching figures for UUAGAGCAAUAUUACGAUCG: -1.29 ± 0.15 and -1.67 ± 0.16.
For CCCUAGCAAUAUUACGUGAG, in that order: -3.42 ± 0.22 and -2.38 ± 0.23.
Turning to ACGGAGCAAUAUUACGGUGU, the “self-splicing fitness (ln)” value is -3.78 ± 0.2 (30 °C) and -2.35 ± 0.16 (37 °C).
Consider UCCAAGCAAUAUUACGCAAA, for which the “self-splicing fitness (ln)” value was -2.18 ± 0.24 (30 °C) and -0.843 ± 0.17 (37 °C).
CCUAAGCAAUAUUACGAGAU: the “self-splicing fitness (ln)” value by setting is: (30 °C) -3.2 ± 0.27; (37 °C) -3.33 ± 0.31.
